Experimental data reported in article PMC12095048.

Molecular target: USP7 (UniProt Q93009)
Assay: co-IP of Flag-HIF-1α, USP7 blot
Conditions: reference: wild type Flag-HIF-1α; sites T645

binding against the reference: weaker
Substance: HIF-1α (from UniProt Q16665) Flag-HIF-1α T645A
